From paper doi:10.1101/2025.06.28.662095, “Mechanistic insights into the allosteric regulation of cell wall hydrolase RipA in Mycobacterium tuberculosis” (bioRxiv, 2025)

Biological target: T1, MtRipACAT (catalytic domain of M. tuberculosis RipA, residues 261-472) (Mycobacterium tuberculosis, UniProt O53168 261-472)
T1 construct: also called MtRipA catalytic domain; NlpC/P60 catalytic domain; not shown: 6xHis-SUMO, N-terminal, cleaved
T1 sequence: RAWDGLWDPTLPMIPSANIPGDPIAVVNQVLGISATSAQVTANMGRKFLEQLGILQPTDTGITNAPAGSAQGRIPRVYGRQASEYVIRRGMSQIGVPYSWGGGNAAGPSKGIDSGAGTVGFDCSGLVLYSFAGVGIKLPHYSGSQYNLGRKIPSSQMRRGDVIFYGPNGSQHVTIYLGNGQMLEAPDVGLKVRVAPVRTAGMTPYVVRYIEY
Assay: BLI; biotinylated MtRipACC immobilised on streptavidin biosensors; 25°C; 25 mM HEPES pH 7.5, 150 mM NaCl, 5% glycerol, BSA 1 mg/mL, 0.05% Tween 20; steady-state signal versus concentration, one-site binding model; apparent Kd
Conditions: both partners purified

B1: MtRipACC (coiled-coil domain of M. tuberculosis RipA, residues 40-240) (domain or fragment)
chain: DPQTDTIAALIADVAKANQRLQDLSDEVQAEQESVNKAMVDVETARDNAAAAEDDLEVSQRAVKDANAAIAAAQHRFDTFAAATYMNGPSVSYLSASSPDEIIATVTAAKTLSASSQAVMANLQRARTERVNTESAARLAKQKADKAAADAKASQDAAVAALTETRRKFDEQREEVQRLAAERDAAQARLQAARLVAWSSE
modifications: biotinylated with EZ-Link NHS-PEG4-Biotin (20 molar excess) for the BLI assays
notes: also called RipA coiled-coil (CC) domain; MtRipA CC domain; not shown: 6xHis-SUMO, N-terminal, cleaved
Kd: 6.8 ± 1.4 µM
